We go through 14 molecules from US20240270821A1, “GIP/GLP1/GCG TRI-RECEPTOR AGONISTS AND USES THEREOF” (priority 2023, published 2024).

Common to all, as to assay: cell-based or functional assay
In experiment [1] the target is human glucagon receptor (human) (UniProt P47871).
Experiment [2] concerns the target T1, human GIP receptor (human) (UniProt P48546).
T1 sequence (looked up): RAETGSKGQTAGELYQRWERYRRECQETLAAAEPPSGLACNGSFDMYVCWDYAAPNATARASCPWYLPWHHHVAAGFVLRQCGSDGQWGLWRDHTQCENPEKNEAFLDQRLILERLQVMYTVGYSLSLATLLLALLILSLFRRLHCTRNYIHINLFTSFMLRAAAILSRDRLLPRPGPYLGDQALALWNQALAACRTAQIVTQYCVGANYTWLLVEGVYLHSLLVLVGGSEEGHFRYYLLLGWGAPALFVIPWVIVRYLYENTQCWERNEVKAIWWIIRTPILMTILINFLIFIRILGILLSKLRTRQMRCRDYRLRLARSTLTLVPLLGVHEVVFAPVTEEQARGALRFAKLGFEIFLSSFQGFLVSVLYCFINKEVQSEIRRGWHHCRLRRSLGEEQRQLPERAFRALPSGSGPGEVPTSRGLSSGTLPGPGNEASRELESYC

The next experiment has as its target hGLP-1R (Homo sapiens, UniProt P43220).

hGLP-1R, sequence (P43220 24-463): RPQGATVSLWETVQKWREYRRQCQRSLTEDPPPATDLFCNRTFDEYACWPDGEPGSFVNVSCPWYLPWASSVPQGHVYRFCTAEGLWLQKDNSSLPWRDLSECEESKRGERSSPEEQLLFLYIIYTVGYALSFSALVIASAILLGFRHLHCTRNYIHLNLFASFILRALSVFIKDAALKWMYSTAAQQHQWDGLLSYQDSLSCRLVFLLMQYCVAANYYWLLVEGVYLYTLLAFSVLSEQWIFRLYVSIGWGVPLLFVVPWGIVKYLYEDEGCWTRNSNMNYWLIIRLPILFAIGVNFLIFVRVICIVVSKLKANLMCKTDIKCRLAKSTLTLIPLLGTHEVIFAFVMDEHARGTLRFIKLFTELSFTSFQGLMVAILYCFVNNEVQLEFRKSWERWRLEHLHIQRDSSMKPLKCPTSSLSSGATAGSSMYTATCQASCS
human glucagon receptor (human), sequence (P47871 26-477): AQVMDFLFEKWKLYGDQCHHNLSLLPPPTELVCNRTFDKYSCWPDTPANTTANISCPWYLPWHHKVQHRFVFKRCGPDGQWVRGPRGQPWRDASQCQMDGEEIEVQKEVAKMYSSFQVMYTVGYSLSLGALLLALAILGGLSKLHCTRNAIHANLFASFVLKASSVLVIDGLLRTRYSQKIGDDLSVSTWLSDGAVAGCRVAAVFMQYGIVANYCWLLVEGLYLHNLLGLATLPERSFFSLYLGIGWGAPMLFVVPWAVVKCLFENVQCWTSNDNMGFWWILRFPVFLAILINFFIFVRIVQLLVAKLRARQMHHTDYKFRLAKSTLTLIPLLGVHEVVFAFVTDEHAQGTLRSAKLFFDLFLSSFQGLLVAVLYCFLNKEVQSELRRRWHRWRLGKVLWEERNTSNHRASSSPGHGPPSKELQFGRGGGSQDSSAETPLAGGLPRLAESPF

B1: Example 961 (peptide)
chain: YXQGTFTSDXSXXLDKKAQXAFIEYLIAGGPSSGAPPPSGSEE
modifications: synthetic construct; SITE 2: note = 2-Aminoisobutyric Acid; SITE 10: note = 3-(4-Pyridyl)-L-alanine; SITE 12: note = L-ornithine; SITE 13: note = alpha-methyl-leucine; SITE 17: note = Lysine is chemically modified through conjugation of the epsilon-amino group of the Lysine side chain with (gamma-Gl)
Regarding B1, the Relative cAMP EC50 was found to be 2.96 nM in experiment [1], 0.167 nM in experiment [2] and 2.52 nM with hGLP-1R. The cAMP Rel EC50, nM (1% HSA) in experiment [1] was 342 nM; in experiment [2], 13.6 nM; with hGLP-1R, 216 nM.

B2: Example 964 (peptide)
chain: YXQGTFTSDXSXXLDKKAQXAFIEYLIAGGESSGAPPPSGSEE
modifications: synthetic construct; SITE 2: note = 2-Aminoisobutyric Acid; SITE 10: note = 3-(4-Pyridyl)-L-alanine; SITE 12: note = L-ornithine; SITE 13: note = alpha-methyl-leucine; SITE 17: note = Lysine is chemically modified through conjugation of the epsilon-amino group of the Lysine side chain with (gamma-Gl)
Regarding B2, the Relative cAMP EC50 in experiment [1] amounted to 2.75 nM; in experiment [2] it was 0.288 nM; in the experiment with hGLP-1R, 2.67 nM. The cAMP Rel EC50, nM (1% HSA) worked out at 324 nM in experiment [1], 21.4 nM in experiment [2] and 267 nM with hGLP-1R.

B3: Example 972 (peptide)
chain: YXQGTFTSDXSXXLDXKAQXQFIEXLIEGGPSSGAPPPSGSEE
modifications: non-natural residues; (γGlu)2-C18 diacid on Lys; C-terminal amide; synthetic construct; SITE 2: note = 2-Aminoisobutyric Acid; SITE 10: note = 3-(4-Pyridyl)-L-alanine; SITE 12: note = L-ornithine; SITE 13: note = alpha-methyl-leucine; SITE 16: note = L-ornithine; SITE 17: note = Lysine is chemically modified through conjugation of the epsilon-amino group of the Lys
As for B3, the results for the cAMP Rel EC50, nM (1% HSA) (in experiment [1]; in experiment [2]; with hGLP-1R) were 660 nM, 30.4 nM and 327 nM, respectively.

B4: Example 963 (peptide)
chain: YXQGTFTSDXSQXLDKKAQXAFIEYLIAGGESSGAPPPSGSEE
modifications: synthetic construct; SITE 2: note = 2-Aminoisobutyric Acid; SITE 10: note = 3-(4-Pyridyl)-L-alanine; SITE 13: note = alpha-methyl-leucine; SITE 17: note = Lysine is chemically modified through conjugation of the epsilon-amino group of the Lysine side chain with (gamma-Glu)2-CO-(CH2)16-CO2H; SITE 20:
For B4, the Relative cAMP EC50 in experiment [1] came out at 5.81 nM; in experiment [2] it was 0.244 nM; with hGLP-1R, 1.77 nM. Besides, the cAMP Rel EC50, nM (1% HSA) in experiment [1] was determined as 900 nM; in experiment [2] it was 25.1 nM; with hGLP-1R it was 215 nM.

B5: Example 959 (peptide)
chain: YXQGTFTSDXSRXLDKKAQXAFIEXLIEGGPSSGAPPPSGSEE
modifications: Aib, 4Pal, αMeL, Me4Pal; acylated Lys; C-terminal amide; synthetic construct; SITE 2: note = 2-Aminoisobutyric Acid; SITE 10: note = 3-(4-Pyridyl)-L-alanine; SITE 13: note = alpha-methyl-leucine; SITE 17: note = Lysine is chemically modified through conjugation of the epsilon-amino group of the Lysine side chain with (gamma-Glu)2-CO-(CH2)16-CO2H; SITE 20:
As for B5, the cAMP Rel EC50, nM (1% HSA) in experiment [1] came out at 316 nM; in experiment [2], 24.5 nM; with hGLP-1R it was 503 nM.

B6: Example 956 (peptide)
chain: YXQGTFTSDXSRXLDKKAQXAFIEXLIEGGPSSGAPPPSGSEE
modifications: acylated lysine AEEA-γGlu-C18 diacid; non-natural residues; C-terminal amide; synthetic construct; SITE 2: note = 2-Aminoisobutyric Acid; SITE 10: note = 3-(4-Pyridyl)-L-alanine; SITE 13: note = alpha-methyl-leucine; SITE 17: note = Lysine is chemically modified through conjugation of the epsilon-amino group of the Lysine side chain with (2-[2-(2-Amino-ethoxy)-ethoxy]-acetyl)
With B6, the cAMP Rel EC50, nM (1% HSA) came out at 406 nM in experiment [1], 32.1 nM in experiment [2] and 643 nM in the experiment with hGLP-1R.

B7: Example 962 (peptide)
chain: YXQGTFTSDXSRXLDKKAQXAFIEYLIAGGPSSGAPPPSGSEE
modifications: synthetic construct; SITE 2: note = 2-Aminoisobutyric Acid; SITE 10: note = 3-(4-Pyridyl)-L-alanine; SITE 13: note = alpha-methyl-leucine; SITE 17: note = Lysine is chemically modified through conjugation of the epsilon-amino group of the Lysine side chain with (gamma-Glu)2-CO-(CH2)16-CO2H; SITE 20:
Consider B7, for which the values for the Relative cAMP EC50 (in experiment [1]; in experiment [2]; in the experiment with hGLP-1R) were 3.13 nM, 0.0972 nM and 1.36 nM, respectively. Further, the cAMP Rel EC50, nM (1% HSA) in experiment [1] amounted to 485 nM; in experiment [2] it was 9.71 nM; in the experiment with hGLP-1R it was 132 nM.

B8: Example 958 (peptide)
chain: YXQGTFTSDXSXXLDKKAQXAFIEXLIEGGPSSGAPPPSGSEE
modifications: Aib, 4Pal, Orn, αMeL, Me4Pal, acylated K, C-terminal amide; synthetic construct; SITE 2: note = 2-Aminoisobutyric Acid; SITE 10: note = 3-(4-Pyridyl)-L-alanine; SITE 12: note = L-ornithine; SITE 13: note = alpha-methyl-leucine; SITE 17: note = Lysine is chemically modified through conjugation of the epsilon-amino group of the Lysine side chain with (gamma-Gl)
In the case of B8, the cAMP Rel EC50, nM (1% HSA) in experiment [1] came to 340 nM; in experiment [2], 27.1 nM; in the experiment with hGLP-1R, 850 nM.

B9: Example 971 (peptide)
chain: YXQGTFTSDXSQXLDKKAQXAFIEYLIAGGPSSGEPPPSGSGE
modifications: synthetic construct; SITE 2: note = 2-Aminoisobutyric Acid; SITE 10: note = 3-(4-Pyridyl)-L-alanine; SITE 13: note = alpha-methyl-leucine; SITE 17: note = Lysine is chemically modified through conjugation of the epsilon-amino group of the Lysine side chain with (gamma-Glu)2-CO-(CH2)16-CO2H; SITE 20:
Regarding B9, the figures for the Relative cAMP EC50 (in experiment [1]; in experiment [2]; with hGLP-1R) were 8.26 nM, 0.298 nM and 3.46 nM, respectively. For the same molecule, the cAMP Rel EC50, nM (1% HSA) in experiment [1] is 1340 nM; in experiment [2], 30.2 nM; with hGLP-1R, 294 nM.

B10: Example 957 (peptide)
chain: YXQGTFTSDXSQXLDKKAQXAFIEXLIEGGPSSGAPPPSGSEE
modifications: non-natural residues; Lys acylated C18 diacid; C-terminal amide; synthetic construct; SITE 2: note = 2-Aminoisobutyric Acid; SITE 10: note = 3-(4-Pyridyl)-L-alanine; SITE 13: note = alpha-methyl-leucine; SITE 17: note = Lysine is chemically modified through conjugation of the epsilon-amino group of the Lysine side chain with (gamma-Glu)2-CO-(CH2)16-CO2H; SITE 20:
With B10, the cAMP Rel EC50, nM (1% HSA) in experiment [1] came to 947 nM; in experiment [2] it was 25 nM; with hGLP-1R, 747 nM.

B11: Example 967 (peptide)
chain: YXQGTFTSDXSXXLDKKAQXAFIEXLIEGGPSSGAPPPSGSEE
modifications: Aib, 4Pal, Orn, Me4Pal, αMeY; acylated lysine; amide; synthetic construct; SITE 2: note = 2-Aminoisobutyric Acid; SITE 10: note = 3-(4-Pyridyl)-L-alanine; SITE 12: note = L-ornithine; SITE 13: note = alpha-methyl-leucine; SITE 17: note = Lysine is chemically modified through conjugation of the epsilon-amino group of the Lysine side chain with (gamma-Gl)
On to B11, for which the cAMP Rel EC50, nM (1% HSA) in experiment [1] was found to be 508 nM; in experiment [2], 39.5 nM; in the experiment with hGLP-1R, 345 nM.

B12: Example 965 (peptide)
chain: YXQGTFTSDXSRXLDKKAQXAFIEYLIAGGESSGAPPPSGSEE
modifications: synthetic construct; SITE 2: note = 2-Aminoisobutyric Acid; SITE 10: note = 3-(4-Pyridyl)-L-alanine; SITE 13: note = alpha-methyl-leucine; SITE 17: note = Lysine is chemically modified through conjugation of the epsilon-amino group of the Lysine side chain with (gamma-Glu)2-CO-(CH2)16-CO2H; SITE 20:
B12: the Relative cAMP EC50 is 3.35 nM in experiment [1], 0.13 nM in experiment [2] and 1.39 nM with hGLP-1R. In addition, the cAMP Rel EC50, nM (1% HSA) worked out at 430 nM in experiment [1], 23.2 nM in experiment [2] and 194 nM with hGLP-1R.

B13: Example 955 (peptide)
chain: YXQGTFTSDXSXXLDKKAQXAFIEXLIEGGPSSGAPPPSGSEE
modifications: Aib, 4Pal, Me4Pal, Orn, alpha-methyl-Leu, lipidated Lys, amide; synthetic construct; SITE 2: note = 2-Aminoisobutyric Acid; SITE 10: note = 3-(4-Pyridyl)-L-alanine; SITE 12: note = L-ornithine; SITE 13: note = alpha-methyl-leucine; SITE 17: note = Lysine is chemically modified through conjugation of the epsilon-amino group of the Lysine side chain with (2-[2-(2-
Consider B13, for which the cAMP Rel EC50, nM (1% HSA) in experiment [1] was 366 nM; in experiment [2] it was 42.3 nM; in the experiment with hGLP-1R it was 1380 nM.

B14: Example 960 (peptide)
chain: YXQGTFTSDXSQXLDKKAQXAFIEYLIAGGPSSGAPPPSGSEE
modifications: synthetic construct; SITE 2: note = 2-Aminoisobutyric Acid; SITE 10: note = 3-(4-Pyridyl)-L-alanine; SITE 13: note = alpha-methyl-leucine; SITE 17: note = Lysine is chemically modified through conjugation of the epsilon-amino group of the Lysine side chain with (gamma-Glu)2-CO-(CH2)16-CO2H; SITE 20:
As to B14, the Relative cAMP EC50 amounted to 5.5 nM in experiment [1], 0.124 nM in experiment [2] and 1.51 nM with hGLP-1R. The cAMP Rel EC50, nM (1% HSA) turned out to be 813 nM in experiment [1], 14.1 nM in experiment [2] and 161 nM in the experiment with hGLP-1R.
